This note sets out measurements from PMC5025769, “A highly efficient sorbitol dehydrogenase from Gluconobacter oxydans G624 and improvement of its stability through immobilization” (Scientific Reports, 2016).

Series [1] concerns the target T1, GoSLDH (sorbitol dehydrogenase) (Gluconobacter oxydans, UniProt Q9KWR5).
T1 construct: purified 6x His-tagged recombinant GoSLDH
T1 sequence (Q9KWR5 1-485): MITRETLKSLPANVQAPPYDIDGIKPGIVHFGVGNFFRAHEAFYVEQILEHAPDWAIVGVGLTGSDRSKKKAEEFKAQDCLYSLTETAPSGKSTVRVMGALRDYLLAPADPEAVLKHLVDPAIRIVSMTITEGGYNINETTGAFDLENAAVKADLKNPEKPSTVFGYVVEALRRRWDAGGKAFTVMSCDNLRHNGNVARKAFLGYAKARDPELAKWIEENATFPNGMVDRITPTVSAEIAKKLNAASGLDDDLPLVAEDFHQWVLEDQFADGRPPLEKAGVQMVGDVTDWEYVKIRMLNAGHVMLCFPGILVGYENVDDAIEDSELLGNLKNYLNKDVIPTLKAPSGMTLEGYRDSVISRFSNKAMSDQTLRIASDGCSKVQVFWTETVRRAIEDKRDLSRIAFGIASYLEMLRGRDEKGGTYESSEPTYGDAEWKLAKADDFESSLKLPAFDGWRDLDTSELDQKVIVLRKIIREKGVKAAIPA
Nature of the series: substrate specificity assay at […]. In kind it is biochemical.

Series [2] has as its target GoSLDH (sorbitol dehydrogenase) (Gluconobacter oxydans, UniProt Q9KWR5, K294Q). Put plainly: isothermal titration calorimetry, […] °C. In kind it is binding.
The target of series [3] is T2, PfMDH (mannitol dehydrogenase) (Pseudomonas fluorescens, UniProt O08355, K295Q).
T2 construct: gene mtlD
Nature of the series: isothermal titration calorimetry, […] °C. In kind it is binding. A general note: ITC needs no label: the signal is the heat of the interaction.

Substrate in series [4]: OC[C@@H](O)[C@@H](O)[C@H](O)[C@@H](O)CO
Put plainly: purified protein. The following applies: NADP^+. The series is classed as biochemical, Gluconobacter oxydans.

Substrate in series [5]: NC(=O)c1ccc[n+]([C@@H]2O[C@H](COP(=O)(O)OP(=O)(O)OC[C@H]3O[C@@H](n4cnc5c(N)ncnc54)[C@H](OP(=O)(O)O)[C@@H]3O)[C@@H](O)[C@H]2O)c1
Put plainly: purified protein. The following applies: varied: cofactor.

Series [6] concerns the molecule itself. Put plainly: SEC; Bio-Sil SEC-250 column (300 x 7.8 mm) on HPLC; mobile phase pH 6.8, 50 mM Na2HPO4, 50 mM NaH2PO4, 50 mM NaCl, 10 mM NaN3; 1.0 mL/min; quaternary structure from comparison of molecular weights by HPLC and SDS-PAGE. In general terms: In gel filtration, larger molecules generally elute earlier.

T2 sequence (O08355 entry or part of it K295Q): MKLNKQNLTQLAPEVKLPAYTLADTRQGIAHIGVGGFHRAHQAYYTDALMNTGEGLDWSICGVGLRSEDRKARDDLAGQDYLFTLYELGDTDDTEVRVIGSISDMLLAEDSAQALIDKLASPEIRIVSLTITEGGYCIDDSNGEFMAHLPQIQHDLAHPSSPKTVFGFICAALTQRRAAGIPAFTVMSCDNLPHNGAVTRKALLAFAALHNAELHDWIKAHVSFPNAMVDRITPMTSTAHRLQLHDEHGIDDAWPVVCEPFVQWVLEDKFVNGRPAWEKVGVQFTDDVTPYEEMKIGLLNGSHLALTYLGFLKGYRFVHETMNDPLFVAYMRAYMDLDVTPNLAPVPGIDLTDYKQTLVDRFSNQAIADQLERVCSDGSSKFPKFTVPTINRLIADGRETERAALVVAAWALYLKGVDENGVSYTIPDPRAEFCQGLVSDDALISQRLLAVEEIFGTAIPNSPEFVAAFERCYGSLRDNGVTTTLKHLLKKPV

On to `OC[C@@H](O)[C@@H](O)[C@H](O)[C@H](O)CO` [mannitol], for which the “substrate specificity assay at 200 mM” value in series [1] was “GoSLDH is highly specific towards D-sorbitol, mannitol, and D-arabinitol (Table S2)”.
By Kd is commonly meant the concentration at which binding is half-saturated. Low readings indicate tighter binding, high ones weaker binding. `OC[C@@H](O)[C@@H](O)[C@H](O)[C@@H](O)CO` [D-sorbitol]: the figures for the Kd in series [2] and in series [3] were 96 µM and 278 µM, respectively.

B1: sorbitol dehydrogenase (GoSLDH) from Gluconobacter oxydans G624 (enzyme, UniProt Q9KWR5 1-485, looked up)
chain: MITRETLKSLPANVQAPPYDIDGIKPGIVHFGVGNFFRAHEAFYVEQILEHAPDWAIVGVGLTGSDRSKKKAEEFKAQDCLYSLTETAPSGKSTVRVMGALRDYLLAPADPEAVLKHLVDPAIRIVSMTITEGGYNINETTGAFDLENAAVKADLKNPEKPSTVFGYVVEALRRRWDAGGKAFTVMSCDNLRHNGNVARKAFLGYAKARDPELAKWIEENATFPNGMVDRITPTVSAEIAKKLNAASGLDDDLPLVAEDFHQWVLEDQFADGRPPLEKAGVQMVGDVTDWEYVKIRMLNAGHVMLCFPGILVGYENVDDAIEDSELLGNLKNYLNKDVIPTLKAPSGMTLEGYRDSVISRFSNKAMSDQTLRIASDGCSKVQVFWTETVRRAIEDKRDLSRIAFGIASYLEMLRGRDEKGGTYESSEPTYGDAEWKLAKADDFESSLKLPAFDGWRDLDTSELDQKVIVLRKIIREKGVKAAIPA
notes: sorbitol dehydrogenase (SLDH) of Gluconobacter oxydans G624; complete 1455-bp codon-optimized gene; molecular mass 53.64 kDa by SDS-PAGE; The abstract speaks of the complete 1455-bp gene, the methods of 1.458 kb; also called recombinant GoSLDH; polyol-specific long-chain dehydrogenase from G. oxydans G624; source: E. coli BL21 (DE3)-CodonPlus RIL, pET-28(a), purified (Ni-NTA Superflow column)
The Km is the concentration of substrate that gives half-maximal velocity. For orientation: kcat means the maximal rate divided by the concentration of active sites. Broadly, the kcat/Km is the second-order rate constant that governs catalysis at low substrate concentration. For orientation: stoichiometry N means a count of units in the complex or per binding partner. B1: in the series “purified protein [4]”, the Km is recorded as 38.9 mM, the kcat is 3820 s⁻¹ and the kcat/Km worked out at 98100 M⁻¹ s⁻¹. For the same molecule, in “purified protein [5]”, the Km came to 0.0882 mM. Further, the “stoichiometry N” value in series [6] was 2.
